These results are taken from patent publication US20030224487A1.

Assay [1] has as its target human zcytor17 receptor, full length, on transfected cells (human). The assay can be described thus: flow cytometry (SA-PE), BHK-C17 cells, ligand 2.0 µg/mL. In general terms: A flow cytometer gives signals particle by particle.
Assay [2] shares this target. Briefly: flow cytometry (SA-PE), BAF3-C17 cells, ligand 1.0 ng/mL.
Assay [3] shares this target. The assay can be described thus: flow cytometry (SA-PE), BAF3-C17 cells, ligand 10.0 ng/mL.
For assay [4] the target is unchanged. The assay can be described thus: flow cytometry (SA-PE), BHK-C17 cells, ligand 0.001 µg/mL.
Assay [5] has the same target. Briefly: flow cytometry (SA-PE), BHK-C17 cells, ligand 0.010 µg/mL.
Assay [6] shares this target. Briefly: flow cytometry (SA-PE), BHK-C17 cells, ligand 0.100 µg/mL.
Assay [7] has the same target. Briefly: flow cytometry (SA-PE), BAF3-C17 cells, ligand 100.0 ng/mL.
The target is the same in assay [8]. The assay can be described thus: flow cytometry (SA-PE), BHK-C17 cells, ligand 0.0001 µg/mL.
Assay [9] has the same target. Briefly: flow cytometry (SA-PE), BHK-C17 cells, ligand 0.00001 µg/mL.
The target is the same in assay [10]. Briefly: flow cytometry (SA-PE), BHK-C17 cells, ligand 0.000001 µg/mL.
Assay [11] concerns the target human zcytor17 and OSMRbeta co-expressed on transfected cells (human). The assay can be described thus: flow cytometry (SA-PE), BHK C17 + OSMRbeta cells, ligand 2.0 µg/mL.
The target is the same in assay [12]. The assay can be described thus: flow cytometry (SA-PE), BAF3-C17 + OSMRbeta cells, ligand 0.04 µg/mL.
For assay [13] the target is unchanged. The assay can be described thus: flow cytometry (SA-PE), BAF3-C17 + OSMRbeta cells, ligand 0.12 µg/mL.
The target is the same in assay [14]. The assay can be described thus: flow cytometry (SA-PE), BAF3-C17 + OSMRbeta cells, ligand 0.37 µg/mL.
Assay [15] has the same target. The assay can be described thus: flow cytometry (SA-PE), BAF3-C17 + OSMRbeta cells, ligand 1.11 µg/mL.
The target is the same in assay [16]. The assay can be described thus: flow cytometry (SA-PE), BAF3-C17 + OSMRbeta cells, ligand 10.0 µg/mL.
For assay [17] the target is unchanged. Briefly: flow cytometry (SA-PE), BAF3-C17 + OSMRbeta cells, ligand 3.33 µg/mL.
Assay [18] has the same target. The assay can be described thus: flow cytometry (SA-PE), BHK C17 + OSMRbeta cells, ligand 0.001 µg/mL.
Assay [19] shares this target. The assay can be described thus: flow cytometry (SA-PE), BHK C17 + OSMRbeta cells, ligand 0.010 µg/mL.
For assay [20] the target is unchanged. Briefly: flow cytometry (SA-PE), BHK C17 + OSMRbeta cells, ligand 0.100 µg/mL.
Assay [21] shares this target. The assay can be described thus: flow cytometry (SA-PE), BHK C17 + OSMRbeta cells, ligand 0.0001 µg/mL.
The target is the same in assay [22]. Briefly: flow cytometry (SA-PE), BHK C17 + OSMRbeta cells, ligand 0.00001 µg/mL.
Assay [23] shares this target. Briefly: flow cytometry (SA-PE), BHK C17 + OSMRbeta cells, ligand 0.000001 µg/mL.
Assay [24] has as its target human zcytor17 receptor, full length, on transfected cells (human). Briefly: flow cytometry (SA-PE), BHK-C17 cells, ligand 0.0 µg/mL (no ligand, background).
The target is the same in assay [25]. The assay can be described thus: flow cytometry (SA-PE), BAF3-C17 cells, ligand 0.0 ng/mL (no ligand, background).
Assay [26] concerns the target human OncostatinM receptor beta (OSMRbeta), full length, on transfected cells (human). Briefly: flow cytometry (SA-PE), BHK-OSMRbeta cells, ligand 0.0 µg/mL (no ligand, background).
Assay [27] shares this target. Briefly: flow cytometry (SA-PE), BAF3-OSMRbeta cells, ligand 0.00 µg/mL (no ligand, background).
Assay [28] concerns the target human zcytor17 and OSMRbeta co-expressed on transfected cells (human). Briefly: flow cytometry (SA-PE), BHK C17 + OSMRbeta cells, ligand 0.0 µg/mL (no ligand, background).
For assay [29] the target is unchanged. The assay can be described thus: flow cytometry (SA-PE), BAF3-C17 + OSMRbeta cells, ligand 0.00 µg/mL (no ligand, background).
Assay [30] has as its target human OncostatinM receptor beta (OSMRbeta), full length, on transfected cells (human). The assay can be described thus: flow cytometry (SA-PE), BHK-OSMRbeta cells, ligand 2.0 µg/mL (background level; no binding).
The target is the same in assay [31]. The assay can be described thus: flow cytometry (SA-PE), BAF3-OSMRbeta cells, ligand 0.04 µg/mL (background level; no binding).
Assay [32] shares this target. Briefly: flow cytometry (SA-PE), BAF3-OSMRbeta cells, ligand 0.12 µg/mL (background level; no binding).
Assay [33] shares this target. The assay can be described thus: flow cytometry (SA-PE), BAF3-OSMRbeta cells, ligand 0.37 µg/mL (background level; no binding).
For assay [34] the target is unchanged. The assay can be described thus: flow cytometry (SA-PE), BAF3-OSMRbeta cells, ligand 1.11 µg/mL (background level; no binding).
Assay [35] has the same target. Briefly: flow cytometry (SA-PE), BAF3-OSMRbeta cells, ligand 10.0 µg/mL (background level; no binding).
Assay [36] has the same target. The assay can be described thus: flow cytometry (SA-PE), BAF3-OSMRbeta cells, ligand 3.33 µg/mL (background level; no binding).
The target in assay [37] is human zcytor17 and OSMRbeta co-expressed on transfected cells (human). Briefly: cell-based or functional assay.
The target of assay [38] is human zcytor17, OSMRbeta and WSX-1 co-expressed on transfected cells (human). Briefly: cell-based or functional assay.

As for biotinylated human zcytor17L (ligand), the mean fluorescent intensity (MFI) was 3030 in [1]; 17 in assay [2]; 72 in [3]; 39 in assay [4]; 244 in [5]; 1600 in assay [6]. The mean fluorescent intensity (MFI) in [7] is 347; in assay [8], 16; in [9], 15; in assay [10] it was 14; in assay [11] it was 3780; in [12], 247. Besides, the mean fluorescent intensity (MFI) was determined as 364 in assay [13]; 441 in assay [14]; 489 in assay [15]; 531 in assay [16]; 508 in assay [17]; 53 in assay [18]. The mean fluorescent intensity (MFI) turned out to be 328 in assay [19]; 2130 in assay [20]; 17 in assay [21]; 15 in [22]; 14 in assay [23]; 15 in assay [24]. The mean fluorescent intensity (MFI) was found to be 7 in assay [25]; 0 in assay [26]; 11 in [27]; 13 in [28]; 7 in assay [29]; 13 in assay [30]. The mean fluorescent intensity (MFI) in assay [31] came to 5; in [32] it was 5; in assay [33], 5; in assay [34] it was 5; in assay [35], 6; in [36] it was 5.

B1: human zcytor17lig (untagged, expressed from cDNA or native in conditioned media) (ligand)
chain: MASHSGPSTSVLFLFCCLGGWLASHTLPVRLLRPSDDVQKIVEELQSLSKMLLKDVEEEKGVLVSQNYTLPCLSPDAQPPNNIHSPAIRAYLKTIRQLDNKSVIDEIIEHLDKLIFQDAPETNISVPTDTHECKRFILTISQQFSECMDLALKSLTSGAQQATT
Regarding B1, in [37], the proliferation of BaF3/zcytor17/OSMRbeta cells (Alamar Blue) with conditioned media from activated CCRF-CEM and CCRF-HSB2 cells (fold over background) was 10; the proliferation of BaF3/zcytor17/OSMRbeta cells (Alamar Blue) with conditioned media from activated CD3+ selected human cells worked out at 15 fold. In assay [38], the proliferation of BaF3/zcytor17/WSX-1/OSMRbeta cells (Alamar Blue) with conditioned media from activated CCRF-CEM and CCRF-HSB2 cells (fold over background) is 10; the proliferation of BaF3/zcytor17/WSX-1/OSMRbeta cells (Alamar Blue) with conditioned media from activated CD3+ selected human cells (fold over background) stood at 15.
